Experimental data published in publication PMC4811699 (Biochemistry, 2016).

Molecular target: the molecule itself
Test: crystal structure

B1: Methanococcus jannaschii Thi4 (thiazole synthase) (enzyme)
chain: MVNLMNIKDIKLNADETKTTKAILKASFDMWLDIVEADVVIVGAGPSGLTCARYLAKEGFKVVVLERHLAFGGGTWGGGMGFPYIVVEEPADELLREVGIKLIDMGDGYYVADSVEVPAKLAVAAMDAGAKILTGIVVEDLILREDGVAGVVINSYAIERAGLHIDPLTIRSKVVVDATGHEASIVNILVKKNKLEADVPGEKSMWAEKGENALLRNTREVYPNLFVCGMAANASHGGYRMGAIFGGMYLSGKLCAELITEKLKNKE
- stoichiometry N: 8
